Experimental data reported in publication PMC7253548.
Residue numbers refer to the chain shown, from its start.

B1: 18.0-HSE (perfect HSE only) (dsDNA)
DNA 1: CTTGGAATAAGCTTCTAGAAACTTCCAGTTTG
DNA 2: CAAACTGGAAGTTTCTAGAAGCTTATTCCAAG
B2: 18.0-HSE-mutant (Mu) (dsDNA)
DNA 1: B1 DNA 1 with G18C, T23A, T24A, C25T
DNA 2: B1 DNA 2 with G8A, A9T, A10T, C15G

Target: OsHsfB4d (Oryza sativa (rice; cv. Zhonghua 11?), UniProt Q10KX8 1-305)
Assay: EMSA; […], room temperature 20 min, […]; buffer, […]
Details: protein: recombinant; tags: 6xHis (pET-28a); chain copies: 3

Chain of OsHsfB4d (Q10KX8 whole entry): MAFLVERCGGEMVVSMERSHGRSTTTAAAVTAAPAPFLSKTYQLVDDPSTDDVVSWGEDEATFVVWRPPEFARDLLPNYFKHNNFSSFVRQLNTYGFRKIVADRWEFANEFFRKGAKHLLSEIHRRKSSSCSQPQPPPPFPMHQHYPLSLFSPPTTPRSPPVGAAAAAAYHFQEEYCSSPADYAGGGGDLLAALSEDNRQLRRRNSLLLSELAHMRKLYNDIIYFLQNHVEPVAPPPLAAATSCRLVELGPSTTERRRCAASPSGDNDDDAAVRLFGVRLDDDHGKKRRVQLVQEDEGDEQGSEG

Binder | binding result
B1 | binds
B2 | no binding
